Data reported in article PMC11263360, “The structural basis of the activation and inhibition of DSR2 NADase by phage proteins” (Nature Communications, 2024).

B2: DSR2 from Bacillus subtilis 29 R, wild type (enzyme, UniProt P0DXN8 1-1005, looked up)
chain: MVKVDLESKRYGEKLKEVFLMLDNNVVECIKEITESSRNGKLVFFVGAGVSTLSDYPQWWRLVDKYHEELYGSPKKGNYSSDEYLRIPQIFYNVKGEMAFDGILKDFFQVDKPTNPIHDKILAMNPAHVITTNYDNLIDTACWKRGKYFSVISAEEDVANATSSRYLLKVHGDFRKGFKGENVVLKEDDYLNYDQNYPLISNLMKTIIATHTIVFIGYGLGDYNINMLLNWVRKLQKDSFHKPFFIRTDPSPIENETLIYYENKGLRIIDAASLIDSNEYDYLERYSAVMDLLIESQENKFITKDDEVIDYIYGKISPLFALQYIRKIDLKHVFEYDYHFEVNGTVVRHKNKGFGYMERFFELKESCDERSKLSKKQYERFNALFNFFEKNGVICMAKDAGTLNTSIEINSLAYHGKYDVMKKFIEEQSVSIEDDYKKAFFLACLGRWEESYDLYSNIILNSIDESNGCVYYLSQINRYRIYQSITQAVTQFNGLGLLTFGRHYKPFTDEFLARIEREMTNFNIDDLFNGMPFEFQKKYKILEFLSDNQFLYDDTVKLFELTNKVRSEMSEGSYSFGMSSDIVVLLRLYDNLRFLYENCLWSVSFHEFHQYIRNSMSLLIEKAEYERTRDIDELGFSFFGKKSGFFMEYYDFVNISRHFKIDDIKNLERSCSIDKIRFGEQEKIEEYLVGIAEEITKQFSANGMNVVFYTQFISEAKAALYFAKYVKLSEEGLGKIVKALLFYFPERDLDIGKRYVWLERLTKCNELPKSIISIIDDFLVLQAEKHIDQNYSEVSSNGLYSRDYGALIKHFEKNFISKRLSEITLCLTQDKQKQIDFLFKLLPLLSTNAKSHLLSFKSVENINDLMNGIRIGLIDEFTPEHEELIIEYLETRKVNYIVEKEKGIQTFSSNDYMSTFGIWYFLEEINNSKMEEFIGMDDQYDFFVDPENFDYKKFIPSWLKNYNDKLLGKIAGNKHMKHHVIEVLKERVKNSNDKRYLEILMNYFI
notes: DSR2, Sir2 domain-containing NADase, Bacillus subtilis 29 R, WP_029317421, full length (domains described over residues 1-1005); Cloned into pRSF-32M or pET-32M.3C (both add N-terminal thioredoxin and 6xHis); Crosslinked with BS3 for part of the cryo-EM data; also called WT DSR2; wild-type (WT) DSR2; source: E. coli BL21 (DE3), purified (Ni-NTA, size exclusion); for the DSR2-DSAD1 complex …
B3: DSR2 (H171A) catalytically inactive mutant (enzyme, Bacillus subtilis 29 R, UniProt P0DXN8 1-1005, looked up)
chain: MVKVDLESKRYGEKLKEVFLMLDNNVVECIKEITESSRNGKLVFFVGAGVSTLSDYPQWWRLVDKYHEELYGSPKKGNYSSDEYLRIPQIFYNVKGEMAFDGILKDFFQVDKPTNPIHDKILAMNPAHVITTNYDNLIDTACWKRGKYFSVISAEEDVANATSSRYLLKVAGDFRKGFKGENVVLKEDDYLNYDQNYPLISNLMKTIIATHTIVFIGYGLGDYNINMLLNWVRKLQKDSFHKPFFIRTDPSPIENETLIYYENKGLRIIDAASLIDSNEYDYLERYSAVMDLLIESQENKFITKDDEVIDYIYGKISPLFALQYIRKIDLKHVFEYDYHFEVNGTVVRHKNKGFGYMERFFELKESCDERSKLSKKQYERFNALFNFFEKNGVICMAKDAGTLNTSIEINSLAYHGKYDVMKKFIEEQSVSIEDDYKKAFFLACLGRWEESYDLYSNIILNSIDESNGCVYYLSQINRYRIYQSITQAVTQFNGLGLLTFGRHYKPFTDEFLARIEREMTNFNIDDLFNGMPFEFQKKYKILEFLSDNQFLYDDTVKLFELTNKVRSEMSEGSYSFGMSSDIVVLLRLYDNLRFLYENCLWSVSFHEFHQYIRNSMSLLIEKAEYERTRDIDELGFSFFGKKSGFFMEYYDFVNISRHFKIDDIKNLERSCSIDKIRFGEQEKIEEYLVGIAEEITKQFSANGMNVVFYTQFISEAKAALYFAKYVKLSEEGLGKIVKALLFYFPERDLDIGKRYVWLERLTKCNELPKSIISIIDDFLVLQAEKHIDQNYSEVSSNGLYSRDYGALIKHFEKNFISKRLSEITLCLTQDKQKQIDFLFKLLPLLSTNAKSHLLSFKSVENINDLMNGIRIGLIDEFTPEHEELIIEYLETRKVNYIVEKEKGIQTFSSNDYMSTFGIWYFLEEINNSKMEEFIGMDDQYDFFVDPENFDYKKFIPSWLKNYNDKLLGKIAGNKHMKHHVIEVLKERVKNSNDKRYLEILMNYFI
notes: DSR2, Bacillus subtilis 29 R, WP_029317421, full length, with H171A; Crosslinked with 1 mM BS3 before cryo-EM; source: E. coli BL21 (DE3), purified (Ni-NTA, size exclusion)

Assays:
[1] = molecular target: B3; test: cryo-EM structure; purified DSR2 (H171A)-TTP complex, crosslinked with 1 mM BS3, with 1 mM NAD+; 20 mM HEPES pH 7.5, 100 mM NaCl, 0.5 mM TCEP; details: both partners purified
[2] = molecular target: the molecule itself; test: cryo-EM structure; DSR2-DSAD1 complex co-expressed in E. coli and co-purified; uncrosslinked and BS3-crosslinked samples
[3] = molecular target: the molecule itself; test: cryo-EM structure; DSR2 (H171A) alone, crosslinked with 1 mM BS3 in the presence of NAD+; 20 mM HEPES pH 7.5, 100 mM NaCl, 0.5 mM TCEP
[4] = molecular target: the molecule itself; test: AUC; sedimentation velocity, 12 °C, 0.8 mg/ml, 20 mM Tris-HCl pH 7.5, 100 mM NaCl, 1 mM DTT; SEDFIT
[5] = molecular target: B2; test: cryo-EM structure; DSR2-DSAD1 complex co-expressed in E. coli and co-purified; uncrosslinked and BS3-crosslinked samples; details: both partners purified

B1: tail tube protein (TTP) from SPR phage (natural protein, UniProt A0AAE9G628 1-264, looked up)
chain: MKTVIQDTADVYFKRKSDGKLVFTAEAQTASFSQAISEEKLRGGIGNKPLYILKSEKEINLTVKNAFFDLEWLAMTQGETIQEETKVKVFDREHGLIVDDTNKVTLKGKPVSDVTFYNKKGLTYKIAVSTDGTYTIPTAFAAAKDKLTAVYQIEKVGRRLAIKASKFSERYEVEYRTIAYNPDTEEVYSDIYIQFPNVSPSGEFEMSLENGNALAPEIKFEALADTDTDEMAVVIEASRDENTAAPVEDTTGSTQSSDLGGTTE
notes: tail tube protein (TTP), SPR phage, WP_010328117, full length; Residues 80-167 have no density in the cryo-EM map; source: E. coli BL21 (DE3), purified (Ni-NTA, size exclusion)
With B1 the “stoichiometry N” value [1] was 0.5 TTP per DSR2 (2:4).

With B2 the “stoichiometry N” value [2] was 4.

In the case of B3, the “stoichiometry N” value [3] is reported as 4.

B4: DSR2 Y260E mutant (enzyme, Bacillus subtilis 29 R, UniProt P0DXN8 1-1005, looked up)
chain: MVKVDLESKRYGEKLKEVFLMLDNNVVECIKEITESSRNGKLVFFVGAGVSTLSDYPQWWRLVDKYHEELYGSPKKGNYSSDEYLRIPQIFYNVKGEMAFDGILKDFFQVDKPTNPIHDKILAMNPAHVITTNYDNLIDTACWKRGKYFSVISAEEDVANATSSRYLLKVHGDFRKGFKGENVVLKEDDYLNYDQNYPLISNLMKTIIATHTIVFIGYGLGDYNINMLLNWVRKLQKDSFHKPFFIRTDPSPIENETLIEYENKGLRIIDAASLIDSNEYDYLERYSAVMDLLIESQENKFITKDDEVIDYIYGKISPLFALQYIRKIDLKHVFEYDYHFEVNGTVVRHKNKGFGYMERFFELKESCDERSKLSKKQYERFNALFNFFEKNGVICMAKDAGTLNTSIEINSLAYHGKYDVMKKFIEEQSVSIEDDYKKAFFLACLGRWEESYDLYSNIILNSIDESNGCVYYLSQINRYRIYQSITQAVTQFNGLGLLTFGRHYKPFTDEFLARIEREMTNFNIDDLFNGMPFEFQKKYKILEFLSDNQFLYDDTVKLFELTNKVRSEMSEGSYSFGMSSDIVVLLRLYDNLRFLYENCLWSVSFHEFHQYIRNSMSLLIEKAEYERTRDIDELGFSFFGKKSGFFMEYYDFVNISRHFKIDDIKNLERSCSIDKIRFGEQEKIEEYLVGIAEEITKQFSANGMNVVFYTQFISEAKAALYFAKYVKLSEEGLGKIVKALLFYFPERDLDIGKRYVWLERLTKCNELPKSIISIIDDFLVLQAEKHIDQNYSEVSSNGLYSRDYGALIKHFEKNFISKRLSEITLCLTQDKQKQIDFLFKLLPLLSTNAKSHLLSFKSVENINDLMNGIRIGLIDEFTPEHEELIIEYLETRKVNYIVEKEKGIQTFSSNDYMSTFGIWYFLEEINNSKMEEFIGMDDQYDFFVDPENFDYKKFIPSWLKNYNDKLLGKIAGNKHMKHHVIEVLKERVKNSNDKRYLEILMNYFI
notes: DSR2, Bacillus subtilis 29 R, WP_029317421, full length, with Y260E; AUC mass 215 kDa against 425 kDa for the wild type; source: E. coli BL21 (DE3), purified
B4: binds [4].

B5: DSAD1 from SPbeta phage (co-expressed with DSR2) (natural protein, UniProt Q796A8 1-120, looked up)
chain: MIEIFKDTGATHDLVYHSKINTFVWDVEFDIVLSDSKELNKCYFVKCFNPYRINGKCDFAVSSIDIFSEGKRLLIENEFNFKITKAVHVATSKDVTEIVLHLSERISSPFPIVKEVVYLD
notes: DSAD1, SPbeta phage, WP_004399562, full length; source: E. coli BL21 (DE3), co-expressed with DSR2, complex co-purified (as apo DSR2: Ni-NTA, size exclusion)
With B5 the “stoichiometry N” value [5] was 0.5 DSAD1 per DSR2 (2:4).
